How the values were obtained:
[1] = target: HUWE1 (3951–4374), crystallization construct with the N-terminal expression tag (human) (UniProt Q7Z6Z7); test: SEC-MALS; proteins injected at high concentration (~350 to 400 μM; highest point of Figure 3A, Figures 4A, 4F, 4G, Table 2); Superdex 200 10/300 GL, room temperature, 20 mM HEPES pH 8.0, 250 mM NaCl, 1 mM EDTA, 5 mM DTT
[2] = target: HUWE1 (3951–4374), untagged (human) (UniProt Q7Z6Z7); test: AUC; sedimentation equilibrium, dimer to monomers (monomer-dimer self-association model, Sedphat); 10 µM protein, 4°C, 10 mM HEPES pH 8.0, 200 mM NaCl, 1 mM EDTA, 1 mM β-mercaptoethanol; 9000, 13,000 and 17,000 rpm
HUWE1 (3843–4374) [3] = target: T1, HUWE1 (3843–4374) (human, UniProt Q7Z6Z7 3843-4374); test: SEC; HUWE1 constructs at 120 μM without and with a four-fold molar excess of p14ARF (45-75); 10% DMSO; Superdex 200 Increase 3.2/300, 4°C; co-elution of the peptide shown by SDS-PAGE; details: both partners purified
T1 construct: source: LOBSTR RIL cells, purified (IMAC, gel filtration)
T1 sequence (looked up): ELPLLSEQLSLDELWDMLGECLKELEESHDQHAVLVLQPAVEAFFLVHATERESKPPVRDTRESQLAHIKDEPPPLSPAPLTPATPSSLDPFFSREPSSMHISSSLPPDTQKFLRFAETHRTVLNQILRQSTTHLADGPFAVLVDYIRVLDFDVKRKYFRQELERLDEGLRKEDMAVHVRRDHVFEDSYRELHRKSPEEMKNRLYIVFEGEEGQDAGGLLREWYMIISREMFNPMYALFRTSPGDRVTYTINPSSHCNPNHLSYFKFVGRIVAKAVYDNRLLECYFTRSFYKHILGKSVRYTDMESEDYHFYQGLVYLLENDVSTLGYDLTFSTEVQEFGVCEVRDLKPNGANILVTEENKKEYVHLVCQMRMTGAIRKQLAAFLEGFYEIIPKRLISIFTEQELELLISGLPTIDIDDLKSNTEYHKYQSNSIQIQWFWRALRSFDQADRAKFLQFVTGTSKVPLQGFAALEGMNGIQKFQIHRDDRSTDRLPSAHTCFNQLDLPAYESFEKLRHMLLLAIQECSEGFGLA

[4] = target: T2, HUWE1 (3951–4374), untagged (human, UniProt Q7Z6Z7 3951-4374); test: SEC; MBP-tagged activation segment (or MBP) and HUWE1 constructs, each alone at 120 μM and as a 1.5:1 molar mixture; Superdex 200 Increase 3.2/300, 4°C, 20 mM HEPES pH 8.0, 100 mM NaCl, 1 mM EDTA, 5 mM DTT; details: both partners purified
T2 construct: Monomer MW 49.752 kDa (AUC methods); source: LOBSTR RIL cells, purified (IMAC, TEV protease cleavage, second IMAC, gel filtration); not shown: His6, N-terminal, cleaved
T2 sequence (looked up): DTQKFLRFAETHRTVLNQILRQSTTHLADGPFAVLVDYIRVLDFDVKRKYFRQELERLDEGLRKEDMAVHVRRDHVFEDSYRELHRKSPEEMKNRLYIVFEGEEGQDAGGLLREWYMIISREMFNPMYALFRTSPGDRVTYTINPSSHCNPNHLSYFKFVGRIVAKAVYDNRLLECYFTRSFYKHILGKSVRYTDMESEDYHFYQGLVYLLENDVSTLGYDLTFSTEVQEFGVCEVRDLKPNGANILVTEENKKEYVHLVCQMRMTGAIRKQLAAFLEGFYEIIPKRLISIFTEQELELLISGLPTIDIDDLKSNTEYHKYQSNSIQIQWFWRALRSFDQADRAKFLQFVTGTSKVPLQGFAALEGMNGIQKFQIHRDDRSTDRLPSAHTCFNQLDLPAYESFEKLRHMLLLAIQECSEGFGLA

HUWE1 (3843–4374) [5] = target: T1, HUWE1 (3843–4374); test: SEC; as the SEC with p14ARF (45-75), but with p14ARF (45-64); result told only in one sentence of the methods, no data shown; details: both partners purified
[6] = target: the molecule itself; test: SEC-MALS; proteins injected at high concentration (~350 to 400 μM; highest point of Figure 3A, Figures 4A, 4F, 4G, Table 2); Superdex 200 10/300 GL, room temperature, 20 mM HEPES pH 8.0, 250 mM NaCl, 1 mM EDTA, 5 mM DTT

For “HUWE1 (3951–4374), crystallization construct with the N-terminal expression tag (from UniProt Q7Z6Z7 3951-4374) (domain or fragment)”, the stoichiometry N [1] was 2.

Work on “HUWE1 (3951–4374), untagged (from UniProt Q7Z6Z7 3951-4374) (domain or fragment)” yielded a Kd [2] of 2.9 µM.

B1: p14ARF-derived peptide (residues 45–75) (peptide, UniProt Q8N726 45-75, looked up)
peptide: LVLMLLRSQRLGQQPLPRRPGHDDGQRPSGG
notes: p14ARF, human, residues 45–75; also called p14ARF (45-75); p14ARF-peptide; source: synthetic peptide, bought: Elim Biopharm
B1: binds (HUWE1 (3843–4374) [3]).

B2: MBP-tagged activation segment of HUWE1 (residues 3843–3902) (domain or fragment, human, UniProt Q7Z6Z7 3843-3902, looked up)
chain: ELPLLSEQLSLDELWDMLGECLKELEESHDQHAVLVLQPAVEAFFLVHATERESKPPVRD
notes: pETM41: N-terminal TEV protease-cleavable MBP-tag, C-terminal 3C protease-cleavable His6-tag; source: E. coli BL21(DE3), purified (IMAC, gel filtration); not shown: MBP, N-terminal, kept; His6, C-terminal, kept
B2: binds [4].

B3: p14ARF-derived peptide (residues 45–64), unlabelled (peptide, UniProt Q8N726 45-64, looked up)
peptide: LVLMLLRSQRLGQQPLPRRP
notes: p14ARF, human, residues 45–64; also called p14ARF (45-64); source: synthetic peptide, bought: Elim Biopharm
B3: binds (HUWE1 (3843–4374) [5]).

B4: HUWE1 (3896–4374) (domain or fragment, human, UniProt Q7Z6Z7 3896-4374, looked up)
chain: SKPPVRDTRESQLAHIKDEPPPLSPAPLTPATPSSLDPFFSREPSSMHISSSLPPDTQKFLRFAETHRTVLNQILRQSTTHLADGPFAVLVDYIRVLDFDVKRKYFRQELERLDEGLRKEDMAVHVRRDHVFEDSYRELHRKSPEEMKNRLYIVFEGEEGQDAGGLLREWYMIISREMFNPMYALFRTSPGDRVTYTINPSSHCNPNHLSYFKFVGRIVAKAVYDNRLLECYFTRSFYKHILGKSVRYTDMESEDYHFYQGLVYLLENDVSTLGYDLTFSTEVQEFGVCEVRDLKPNGANILVTEENKKEYVHLVCQMRMTGAIRKQLAAFLEGFYEIIPKRLISIFTEQELELLISGLPTIDIDDLKSNTEYHKYQSNSIQIQWFWRALRSFDQADRAKFLQFVTGTSKVPLQGFAALEGMNGIQKFQIHRDDRSTDRLPSAHTCFNQLDLPAYESFEKLRHMLLLAIQECSEGFGLA
notes: source: LOBSTR RIL cells, purified (IMAC, gel filtration)
In the case of B4, the “stoichiometry N” value [6] is reported as 2.

— article PMC5308896, “A conformational switch regulates the ubiquitin ligase HUWE1” (eLife, 2017)
